Measured values published in US20260193309A1 (BRIGHAM AND WOMEN S HOSPITAL, published 2026).

B1: human CEACAM1 IgV domain, wild type (tagless hCEACAM1 IgV domain) (receptor)
chain: QLTTESMPFNVAEGKEVLLLVHNLPQQLFGYSWYKGERVDGNRQIVGYAIGTQQATPGPANSGRETIYPNASLLIQNVTQNDTGFYTLQVIKSDLVNEEATGQFHVYP
notes: also called hCEACAM1 WT; WT

Columns and labels:
[1] = molecular target: the molecule itself; experiment: PDB-PISA analysis of the dimer crystal structure
[2] = molecular target: the molecule itself; experiment: DSF and SEC-MALS (FIGS. 14B and 14C)
[3] = molecular target: B1; experiment: PDB-PISA analysis of the dimer crystal structure
[4] = molecular target: B1; experiment: ELISA binding assay, tagless hCEACAM1 IgV protein added to WT hCEACAM1; signal given as fold response relative to WT
[5] = molecular target: B1; experiment: structure of the heterodimer (FIG. 10C)

## B1
[1]
  PDB dimer formation score (PDB-PISA): 0.89

B2: hCEACAM1 IgV domain mutant V39A (receptor)
chain: QLTTESMPFNVAEGKEVLLLVHNLPQQLFGYSWYKGERADGNRQIVGYAIGTQQATPGPANSGRETIYPNASLLIQNVTQNDTGFYTLQVIKSDLVNEEATGQFHVYP
notes: also called hCEACAM1 V39A
[2]
  binding result: binds

B3: hCEACAM1 IgV domain mutant I91A (receptor)
chain: QLTTESMPFNVAEGKEVLLLVHNLPQQLFGYSWYKGERVDGNRQIVGYAIGTQQATPGPANSGRETIYPNASLLIQNVTQNDTGFYTLQVAKSDLVNEEATGQFHVYP
notes: also called hCEACAM1 I91A
[2]
  binding result: binds

B4: hCEACAM1 IgV domain variant D40R (receptor)
chain: QLTTESMPFNVAEGKEVLLLVHNLPQQLFGYSWYKGERVRGNRQIVGYAIGTQQATPGPANSGRETIYPNASLLIQNVTQNDTGFYTLQVIKSDLVNEEATGQFHVYP
notes: also called hCEACAM1 D40R
[1]
  PDB dimer formation score (PDB-PISA): 0.93

B5: hCEACAM1 IgV domain variant R38D (receptor)
chain: QLTTESMPFNVAEGKEVLLLVHNLPQQLFGYSWYKGEDVDGNRQIVGYAIGTQQATPGPANSGRETIYPNASLLIQNVTQNDTGFYTLQVIKSDLVNEEATGQFHVYP
notes: also called tagless R38D; hCEACAM1 R38D
[3]
  PDB dimer formation score (PDB-PISA): 0.91

B6: hCEACAM1 IgV domain variant Q89H (receptor)
chain: QLTTESMPFNVAEGKEVLLLVHNLPQQLFGYSWYKGERVDGNRQIVGYAIGTQQATPGPANSGRETIYPNASLLIQNVTQNDTGFYTLHVIKSDLVNEEATGQFHVYP
notes: also called tagless Q89H; hCEACAM1 Q89H
[1]
  PDB dimer formation score (PDB-PISA): 0.96
[4]
  binding result: binds

B7: hCEACAM1 IgV domain variant R38D/G41S (receptor)
chain: QLTTESMPFNVAEGKEVLLLVHNLPQQLFGYSWYKGEDVDSNRQIVGYAIGTQQATPGPANSGRETIYPNASLLIQNVTQNDTGFYTLQVIKSDLVNEEATGQFHVYP
notes: also called R38D G41S monomer
[5]
  binding result: binds
